Experimental data from the RNAGym collection of RNA variant scans (doi:10.1093/molbev/msab373).

B1: Azoarcus group I ribozyme (parent)
chain: GUGCCUUGCGCCGGGAAACCACGCAAGGGAUGGUGUCAAAUUCGGCGAAACCUAAGCGCCCGCCCGGGCGUAUGGCAACGCCGAGCCAAGCUUCGGCGCCUGCGCCGAUGAAGGUGUAGAGACUAGACGGCACCCACCUAAGGCAAACGCUAUGGUGAAGGCAUAGUCCAGGGAGUGGCGAAAGUCACACAAACCGG

Variants of: B1
Test: reverse-splicing fitness (ratio to wild type); higher = more active; in vitro selection; Mg2+ level not given
Procedure, shortened: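 An in vitro group I ribozyme library with randomized positions was T7-transcribed and gel-purified. In triplicate, 10 pmol RNA in EPPS pH 7.5 was reacted with 50 pmoles of a 30-nt RNA substrate for 1 h at 37 °C across several added MgCl2 levels (1–48 mM), then stopped with EDTA. Products were reverse transcribed from a substrate-complementary primer, PCR-amplified and sequenced (HiSeq 4000). Fitness is a variant's read proportion after selection over that before, normalised to wild type.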

**Q.** With GUGCCUUGCGCCGGGAAACCACGCAAGGGAUGGUGUCAAAUUCGGCGAAACCUAAGCGCCCGCCCGGGCGUAUGGCAACGCAGAGCCAAGCUUCGGCGCCUGCGCCGAUGUAGGUGUAGCGACUAGACGGCACCCACCUAAGGCCAACGCUAUGGUGAAGGCAUAGUCCAGGGAGAGGCGAAAGUCACACAAACCGG as the variant, how does the reverse-splicing fitness read?
**A.** 0.0139

**Q.** With GUGCCUUGCGCCGGGAAACCACGCAAGGGAUGGUGUCAAAUUCGGCGAAACCUAAGCGCCCGCCCGGGCGUAUGGCAACGCAGAGCCAAGCUUCGGCGCCUGCGCCGAUGUAGGUGUAGCGACUAGACGGCACCCACCUAAGGCCAACGCUAUGGUGAAGGCAUAGUCCAGGGAGCGGCGAAAGUCACACAAACCGG as the variant, how does the reverse-splicing fitness read?
**A.** 0.0202

**Q.** For GUGCCUUGCGCCGGGAAACCACGCAAGGGAUGGUGUCAAAUUCGGCGAAACCUAAGCGCCCGCCCGGGCGUAUGGCAACGCAGAGCCAAGCUUCGGCGCCUGCGCCGAUGUAGGUGUAGCGACUAGACGGCACCCACCUAAGGCCAACGCUAUGGUGAAGGCAUAGUCCAGGGAGGGGCGAAAGUCACACAAACCGG, which reverse-splicing fitness is on record?
**A.** 0.00578

**Q.** With GUGCCUUGCGCCGGGAAACCACGCAAGGGAUGGUGUCAAAUUCGGCGAAACCUAAGCGCCCGCCCGGGCGUAUGGCAACGCAGAGCCAAGCUUCGGCGCCUGCGCCGAUGUAGGUGUAGCGACUAGACGGCACCCACCUAAGGCGAACGAUAUGGUGAAGGCAUAGUCCAGGGAGUGGCGAAAGUCACACAAACCGG as the variant, how does the reverse-splicing fitness read?
**A.** 0.013

**Q.** Which reverse-splicing fitness does the source give for GUGCCUUGCGCCGGGAAACCACGCAAGGGAUGGUGUCAAAUUCGGCGAAACCUAAGCGCCCGCCCGGGCGUAUGGCAACGCAGAGCCAAGCUUCGGCGCCUGCGCCGAUGUAGGUGUAGCGACUAGACGGCACCCACCUAAGGCCAACGCUAUGGUGAAGGCAUAGUCAAGGGAGUGGCGAAAGUCACACAAACCGG here?
**A.** 0.0103

**Q.** Which reverse-splicing fitness does the source give for GUGCCUUGCGCCGGGAAACCACGCAAGGGAUGGUGUCAAAUUCGGCGAAACCUAAGCGCCCGCCCGGGCGUAUGGCAACGCAGAGCCAAGCUUCGGCGCCUGCGCCGAUGUAGGUGUAGCGACUAGACGGCACCCACCUAAGGCCAACGCUAUGGUGAAGGCAUAGUCUAGGGAGUGGCGAAAGUCACACAAACCGG here?
**A.** 0.0112

**Q.** Which reverse-splicing fitness does the source give for GUGCCUUGCGCCGGGAAACCACGCAAGGGAUGGUGUCAAAUUCGGCGAAACCUAAGCGCCCGCCCGGGCGUAUGGCAACGCAGAGCCAAGCUUCGGCGCCUGCGCCGAUGUAGGUGUAGCGACUAGACGGCACCCACCUAAGGCCAACGCUAUGGUGAAGGCAUAGUCGAGGGAGUGGCGAAAGUCACACAAACCGG here?
**A.** 0.01

**Q.** Which reverse-splicing fitness does the source give for GUGCCUUGCGCCGGGAAACCACGCAAGGGAUGGUGUCAAAUUCGGCGAAACCUAAGCGCCCGCCCGGGCGUAUGGCAACGCAGAGCCAAGCUUCGGCGCCUGCGCCGAUGUAGGUGUAGCGACUAGACGGCACCCACCUAAGGCCAACGUUAUGGUGAAGGCAUAGUCCAGGGAGCGGCGAAAGUCACACAAACCGG here?
**A.** 0.0198

**Q.** For GUGCCUUGCGCCGGGAAACCACGCAAGGGAUGGUGUCAAAUUCGGCGAAACCUAAGCGCCCGCCCGGGCGUAUGGCAACGCAGAGCCAAGCUUCGGCGCCUGCGCCGAUGUAGGUGUAGCGACUAGACGGCACCCACCUAAGGCCAACGUUAUGGUGAAGGCAUAGUCCAGGGAGAGGCGAAAGUCACACAAACCGG, which reverse-splicing fitness is on record?
**A.** 0.0118

**Q.** Which reverse-splicing fitness does the source give for GUGCCUUGCGCCGGGAAACCACGCAAGGGAUGGUGUCAAAUUCGGCGAAACCUAAGCGCCCGCCCGGGCGUAUGGCAACGCAGAGCCAAGCUUCGGCGCCUGCGCCGAUGUAGGUGUAGCGACUAGACGGCACCCACCUAAGGCCAACGUUAUGGUGAAGGCAUAGUCCAGGGAGGGGCGAAAGUCACACAAACCGG here?
**A.** 0.00643

**Q.** Which reverse-splicing fitness does the source give for GUGCCUUGCGCCGGGAAACCACGCAAGGGAUGGUGUCAAAUUCGGCGAAACCUAAGCGCCCGCCCGGGCGUAUGGCAACGCAGAGCCAAGCUUCGGCGCCUGCGCCGAUGUAGGUGUAGCGACUAGACGGCACCCACCUAAGGCCAACGCUAUGGUGAAGGCAUAGUCUAGGGAGAGGCGAAAGUCACACAAACCGG here?
**A.** 0.0168

**Q.** Which reverse-splicing fitness does the source give for GUGCCUUGCGCCGGGAAACCACGCAAGGGAUGGUGUCAAAUUCGGCGAAACCUAAGCGCCCGCCCGGGCGUAUGGCAACGCAGAGCCAAGCUUCGGCGCCUGCGCCGAUGUAGGUGUAGCGACUAGACGGCACCCACCUAAGGCCAACGCUAUGGUGAAGGCAUAGUCUAGGGAGGGGCGAAAGUCACACAAACCGG here?
**A.** 0.00416

**Q.** For GUGCCUUGCGCCGGGAAACCACGCAAGGGAUGGUGUCAAAUUCGGCGAAACCUAAGCGCCCGCCCGGGCGUAUGGCAACGCAGAGCCAAGCUUCGGCGCCUGCGCCGAUGUAGGUGUAGCGACUAGACGGCACCCACCUAAGGCCAACGCUAUGGUGAAGGCAUAGUCUAGGGAGCGGCGAAAGUCACACAAACCGG, which reverse-splicing fitness is on record?
**A.** 0.0149

**Q.** For GUGCCUUGCGCCGGGAAACCACGCAAGGGAUGGUGUCAAAUUCGGCGAAACCUAAGCGCCCGCCCGGGCGUAUGGCAACGCAGAGCCAAGCUUCGGCGCCUGCGCCGAUGUAGGUGUAGCGACUAGACGGCACCCACCUAAGGCGAACGAUAUGGUGAAGGCAUAGUCAAGGGAGGGGCGAAAGUCACACAAACCGG, which reverse-splicing fitness is on record?
**A.** 0.0115

**Q.** For GUGCCUUGCGCCGGGAAACCACGCAAGGGAUGGUGUCAAAUUCGGCGAAACCUAAGCGCCCGCCCGGGCGUAUGGCAACGCAGAGCCAAGCUUCGGCGCCUGCGCCGAUGUAGGUGUAGCGACUAGACGGCACCCACCUAAGGCGAACGAUAUGGUGAAGGCAUAGUCAAGGGAGAGGCGAAAGUCACACAAACCGG, which reverse-splicing fitness is on record?
**A.** 0.0221
